In patent US20120142040:

Tested on: H3K4me2-biotin peptide (1ARTKme2QTARKSTGGKAPRKQLYKbiotin)
Sequence (chain, as listed by the source): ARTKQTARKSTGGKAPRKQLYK

## GST-LSD1 (prepared in-house)
  shift of the mass spectra after the demethylase assay (MassSQUIRM, MALDI mass spectrometry): Upon addition of LSD1, we observed a shift of spectra to greater mass, indicating a mixed population of methylation states
